Experimental data published in publication PMC4643373.

Molecular target: FMRP RGG box (UniProt Q06787 527-554)
Assay: EMSA

Question: Does GGGUACGGGAGGGUAAGGCUGUGGGUCGCGUG (structured_RNA) [NR2B mRNA (32 nt)] bind?
Answer: Result: binds
